Laboratory results reported in paper PMC9483116, “Deubiquitination of BES1 by UBP12/UBP13 promotes brassinosteroid signaling and plant growth” (Plant Communications, 2022).
One block for each binder: values may come before it.

Experiments:
Experiment in all cases: pull-down; in vitro; GST-tagged proteins bound to glutathione resin as bait, MBP-tagged proteins incubated with them; about 2 ug of each protein; immunoblot with anti-myc or anti-MBP
Conditions in all cases: both partners purified
GST-UBP12 (full-length) = molecular target: T1, GST-UBP12 (full-length) (Arabidopsis thaliana, UniProt Q9FPT1 1-1116)
T1 construct: UBP12 (ubiquitin-specific protease 12), Arabidopsis thaliana, At5g06600; full length (1-1116 by the limits printed for its N and C derivatives); not shown: GST, N-terminal, kept
T1 sequence (looked up): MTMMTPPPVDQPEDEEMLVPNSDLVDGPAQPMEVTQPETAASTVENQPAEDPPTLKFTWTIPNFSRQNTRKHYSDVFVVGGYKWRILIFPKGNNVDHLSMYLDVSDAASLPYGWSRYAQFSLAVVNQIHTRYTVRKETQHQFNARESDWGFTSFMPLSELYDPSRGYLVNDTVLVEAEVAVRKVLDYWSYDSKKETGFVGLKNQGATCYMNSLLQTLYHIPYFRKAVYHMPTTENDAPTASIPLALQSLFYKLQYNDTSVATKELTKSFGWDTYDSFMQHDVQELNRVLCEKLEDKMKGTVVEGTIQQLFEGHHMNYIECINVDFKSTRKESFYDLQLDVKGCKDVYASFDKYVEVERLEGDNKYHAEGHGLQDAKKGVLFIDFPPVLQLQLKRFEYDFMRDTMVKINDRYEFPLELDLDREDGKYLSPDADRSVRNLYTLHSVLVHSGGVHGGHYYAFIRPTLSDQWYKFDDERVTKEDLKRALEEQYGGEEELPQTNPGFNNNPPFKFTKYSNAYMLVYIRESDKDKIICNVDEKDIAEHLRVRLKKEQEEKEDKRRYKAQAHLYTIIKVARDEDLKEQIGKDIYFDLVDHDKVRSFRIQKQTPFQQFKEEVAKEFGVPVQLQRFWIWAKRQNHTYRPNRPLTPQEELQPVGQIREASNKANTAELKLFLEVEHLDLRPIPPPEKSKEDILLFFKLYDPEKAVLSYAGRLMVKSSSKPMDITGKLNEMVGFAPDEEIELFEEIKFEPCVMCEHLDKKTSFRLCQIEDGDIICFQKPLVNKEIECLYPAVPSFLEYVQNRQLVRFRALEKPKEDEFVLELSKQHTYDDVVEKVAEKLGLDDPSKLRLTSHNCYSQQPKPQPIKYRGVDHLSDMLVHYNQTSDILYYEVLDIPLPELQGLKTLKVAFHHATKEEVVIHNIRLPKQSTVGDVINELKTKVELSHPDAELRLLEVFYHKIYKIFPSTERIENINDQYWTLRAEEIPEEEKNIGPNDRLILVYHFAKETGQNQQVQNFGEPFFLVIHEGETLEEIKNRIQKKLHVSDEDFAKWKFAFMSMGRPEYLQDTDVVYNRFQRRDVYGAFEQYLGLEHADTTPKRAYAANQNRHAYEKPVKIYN

[1] = molecular target: T2, GST-UBP12-N (N-terminal region of UBP12, amino acids 1–541) (Arabidopsis thaliana, UniProt Q9FPT1 1-541)
T2 construct: UBP12, Arabidopsis thaliana, At5g06600; N-terminal region, amino acids 1-541, with the MATH domain and the cysteine/histidine-containing catalytic domain
T2 sequence (looked up): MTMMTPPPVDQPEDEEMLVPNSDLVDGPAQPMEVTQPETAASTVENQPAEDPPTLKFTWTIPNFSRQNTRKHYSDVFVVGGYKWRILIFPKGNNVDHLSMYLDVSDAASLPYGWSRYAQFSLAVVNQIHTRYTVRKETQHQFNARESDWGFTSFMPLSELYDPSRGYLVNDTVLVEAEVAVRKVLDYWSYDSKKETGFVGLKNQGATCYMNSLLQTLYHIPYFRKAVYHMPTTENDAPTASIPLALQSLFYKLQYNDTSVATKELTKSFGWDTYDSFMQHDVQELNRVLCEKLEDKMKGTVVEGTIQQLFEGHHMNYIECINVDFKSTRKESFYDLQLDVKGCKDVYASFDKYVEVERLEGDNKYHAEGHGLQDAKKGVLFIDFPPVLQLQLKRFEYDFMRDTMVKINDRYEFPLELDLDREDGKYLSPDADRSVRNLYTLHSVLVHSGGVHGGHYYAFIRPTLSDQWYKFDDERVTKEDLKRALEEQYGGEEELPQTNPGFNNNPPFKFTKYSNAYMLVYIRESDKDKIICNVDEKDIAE

GST-UBP13 (full-length) = molecular target: T3, GST-UBP13 (full-length) (Arabidopsis thaliana, UniProt Q84WU2 1-1115)
T3 construct: UBP13 (ubiquitin-specific protease 13), Arabidopsis thaliana, At3g11910; full length
T3 sequence (looked up): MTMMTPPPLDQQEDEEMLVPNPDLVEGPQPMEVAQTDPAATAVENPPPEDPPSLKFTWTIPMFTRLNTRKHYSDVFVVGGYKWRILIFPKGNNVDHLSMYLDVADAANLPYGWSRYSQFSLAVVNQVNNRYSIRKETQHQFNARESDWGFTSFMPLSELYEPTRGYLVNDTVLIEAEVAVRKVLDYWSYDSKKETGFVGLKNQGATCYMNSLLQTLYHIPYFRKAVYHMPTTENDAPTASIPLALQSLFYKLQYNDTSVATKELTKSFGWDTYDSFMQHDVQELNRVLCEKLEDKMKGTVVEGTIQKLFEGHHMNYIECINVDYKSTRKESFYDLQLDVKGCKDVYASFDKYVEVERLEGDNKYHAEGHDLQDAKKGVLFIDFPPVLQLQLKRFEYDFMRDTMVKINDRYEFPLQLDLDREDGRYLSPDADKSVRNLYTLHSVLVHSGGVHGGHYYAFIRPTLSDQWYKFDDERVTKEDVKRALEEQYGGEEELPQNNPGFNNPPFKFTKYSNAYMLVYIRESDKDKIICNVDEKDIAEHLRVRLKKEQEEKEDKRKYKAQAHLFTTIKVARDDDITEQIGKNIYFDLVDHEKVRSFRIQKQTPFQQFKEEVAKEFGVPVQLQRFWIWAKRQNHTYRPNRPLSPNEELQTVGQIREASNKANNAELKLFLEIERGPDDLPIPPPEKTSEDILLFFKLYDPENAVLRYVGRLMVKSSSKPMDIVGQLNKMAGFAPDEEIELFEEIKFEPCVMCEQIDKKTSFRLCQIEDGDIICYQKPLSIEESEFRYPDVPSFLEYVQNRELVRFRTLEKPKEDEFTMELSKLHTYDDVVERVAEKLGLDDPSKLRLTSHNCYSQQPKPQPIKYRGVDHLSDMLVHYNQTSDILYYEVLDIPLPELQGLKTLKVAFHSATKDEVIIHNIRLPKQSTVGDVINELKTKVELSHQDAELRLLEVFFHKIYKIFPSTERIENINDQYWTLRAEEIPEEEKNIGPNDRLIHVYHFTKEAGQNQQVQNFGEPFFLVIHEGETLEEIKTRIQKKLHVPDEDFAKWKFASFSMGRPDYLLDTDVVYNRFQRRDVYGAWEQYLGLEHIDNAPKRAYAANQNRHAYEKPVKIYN

binding result (GST-UBP12 (full-length)): binds | binding result [1]: binds | binding result (GST-UBP13 (full-length)): binds
B1: MBP-BES1-myc (BRI1-EMS-SUPPRESSOR 1) (natural protein, Arabidopsis thaliana, UniProt Q9LN63 1-335, looked up)
chain: MTSDGATSTSAAAAAAAMATRRKPSWRERENNRRRERRRRAVAAKIYTGLRAQGNYNLPKHCDNNEVLKALCSEAGWVVEEDGTTYRKGHKPLPGDMAGSSSRATPYSSHNQSPLSSTFDSPILSYQVSPSSSSFPSPSRVGDPHNISTIFPFLRNGGIPSSLPPLRISNSAPVTPPVSSPTSRNPKPLPTWESFTKQSMSMAAKQSMTSLNYPFYAVSAPASPTHHRQFHAPATIPECDESDSSTVDSGHWISFQKFAQQQPFSASMVPTSPTFNLVKPAPQQLSPNTAAIQEIGQSSEFKFENSQVKPWEGERIHDVAMEDLELTLGNGKAHS
notes: BES1 (BRI1-EMS-SUPPRESSOR 1), Arabidopsis thaliana, At1g19350; source: E. coli BL21 (DE3) pLysS, purified (amylose resin); not shown: MBP, N-terminal, kept; 6x myc, C-terminal, kept

binding result (GST-UBP12 (full-length)): binds | binding result (GST-UBP13 (full-length)): binds
B2: MBP-BZR1-myc (BRASSINAZOLE RESISTANT1) (natural protein, Arabidopsis thaliana, UniProt Q8S307 1-336, looked up)
chain: MTSDGATSTSAAAAAAAAAAARRKPSWRERENNRRRERRRRAVAAKIYTGLRAQGDYNLPKHCDNNEVLKALCVEAGWVVEEDGTTYRKGCKPLPGEIAGTSSRVTPYSSQNQSPLSSAFQSPIPSYQVSPSSSSFPSPSRGEPNNNMSSTFFPFLRNGGIPSSLPSLRISNSCPVTPPVSSPTSKNPKPLPNWESIAKQSMAIAKQSMASFNYPFYAVSAPASPTHRHQFHTPATIPECDESDSSTVDSGHWISFQKFAQQQPFSASMVPTSPTFNLVKPAPQQMSPNTAAFQEIGQSSEFKFENSQVKPWEGERIHDVGMEDLELTLGNGKARG
notes: BZR1 (BRASSINAZOLE RESISTANT1), Arabidopsis thaliana, At1g75080; source: E. coli BL21 (DE3) pLysS, purified (amylose resin); not shown: MBP, N-terminal, kept; 6x myc, C-terminal, kept
